# Source: US20220144890
# T1: H2 α-helical peptide derived from GBRL2 (GABARAPL2 alpha-helix 2 domain)
# T1 chain: VAQFMWIIRKR
# How the values were obtained:
# [1] = molecular target: H2 peptide derived from GBR
# [2] = molecular target: H2 peptide derived from MAP1LC3B
# [3] = molecular target: T1, H2 α-helical peptide derived from GBRL2 …
# [4] = molecular target: H2 peptide derived from MAP1LC3C
protein,measurement,setting,value
recombinant ATG4B (protein) MDAATLTYDTLRFAEFEDFPETSEPVWILGRKYSIFTEKDEILSDVASRLWFTYRKNFPAIGGTGPTSDTGWGCMLRCGQMIFAQALVCRHLGRDWRWTQRKRQPDSYFSVLNAFIDRKDSYYSIHQIAQMGVGEGKSIGQWYGPNTVAQVLKKLAVFDTWSSLAVHIAMDNTVVMEEIRRLCRTSVPCAGATAFPADSDRHCNGFPAGAEVTNRPSPWRPLVLLIPLRLGLTDINEAYVETLKHCFMMPQSLGVIGGKPNSAHYFIGYVGEELIYLDPHTTQPAVEPTDGCFIPDESFHCQHPPCRMSIAELDPSIAVGFFCKTEDDFNDWCQQVKKLSLLGGALPMFELVELQPSHLACPDVLNLSLDSSDVERLERFFDSEDEDFEILSL,ATG4B cleavage of chimeric Myc-GBRL2-S-tag substrate (blot),[1],inhibited ATG4B cleavage activity in dose dependent manner
same,ATG4B cleavage of chimeric Myc-GBRL2-S-tag substrate (blot),[2],"inhibited ATG4B cleavage activity in dose dependent manner, while H2 peptides derived from MAP1LC3B and GBRL2 had the strongest inhibition on ATG4B"
same,ATG4B cleavage of chimeric Myc-GBRL2-S-tag substrate (blot),[3],"inhibited ATG4B cleavage activity in dose dependent manner, while H2 peptides derived from MAP1LC3B and GBRL2 had the strongest inhibition on ATG4B"
same,ATG4B cleavage of chimeric Myc-GBRL2-S-tag substrate (blot),[4],inhibited ATG4B cleavage activity in dose dependent manner
